Experiment [1] concerns the target T1, Hepcidin-25 containing a C-terminal biotin group (human, C-terminal biotin group).
T1 construct: also called Hepcidin-25-C-bio; biotinylated hepcidin
T1 peptide: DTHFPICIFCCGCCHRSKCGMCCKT
Put plainly: solution competition ECL assay: 25 pM Hepcidin-25-C-bio pre-incubated with the conjugate, remaining free Hepcidin-25-C-bio captured on plate-coated antibody 12B9; STDV 14 pM, mean of n=5. The method, then:
(§1) The binding affinity of the hNGAL mutein having the sequence of SEQ ID NO: 2 was compared to the binding affinity of the hNGAL mutein having the sequence of SEQ ID NO: 1 linked to PEG12, PEG20, PEG30 or PEG40 in a solution competition electrochemiluminescence (ECL) assay. A defined molar concentration of Hepcidin-25 containing a C-terminal biotin group (25 pM, Hepcidin-25-C-bio) was incubated with different concentrations of the lipocalin muteins for 30 min. at room temperature. The solution was then transferred to an ECL plate coated with the human hepcidin specific monoclonal antibody 12B9 as described herein (and disclosed in WO2008/097461) to measure the remaining concentration of free Hepcidin-25-C-bio in the solution. 12B9-bound Hepcidin-25-C-bio was detected via the Streptavidin sulfotag detection reagent on the Meso-Scale ECL platform and the concentration determined via a Hepcidin-25-C-bio standard curve. […] The assay, for example, was able to distinguish the binding affinity of one lipocalin mutein (SEQ ID NO: 2) from the binding affinity of another lipocalin mutein (SEQ ID NO: 3). Furthermore, it allowed a direct comparison of different high affinities of the lipocalin muteins as well as conjugates having PEG chains of different length.

The target in experiment [2] is T2, Hepcidin-25 (human).
T2 construct: also called Hepc25; mature form of human hepcidin
T2 peptide: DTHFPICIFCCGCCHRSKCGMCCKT
The experiment in a line: surface plasmon resonance (Biacore T200, 25 °C), mutein amine-coupled to a CM5 chip, Hepcidin-25 as analyte, 1:1 binding model; N=6. For orientation: Surface plasmon resonance follows binding to a sensor surface in real time, without labels.

The target in experiment [3] is T3, Cynomolgus hepcidin 25 (Cynomolgus monkey, UniProt A7XEI3 60-84, not fully specified).
T3 construct: mature; also called Cynomolgous hepcidin 25
T3 peptide: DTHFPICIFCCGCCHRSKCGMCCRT
The experiment in a line: surface plasmon resonance (Biacore), cynomolgus hepcidin 25 as analyte, tested side by side with Hepcidin-25 in the same assay format; N=3.

For experiment [4], the target named is T4, VEGF8-109 (Pieris, truncated VEGF) (UniProt P15692 214-315).
T4 construct: range 8-109; By custom it is counted on mature VEGF-A, not on the precursor
T4 sequence (looked up): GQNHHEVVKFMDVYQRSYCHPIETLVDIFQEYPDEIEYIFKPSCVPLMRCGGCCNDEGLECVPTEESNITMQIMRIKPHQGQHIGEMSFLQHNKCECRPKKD
The experiment in a line: SPR (Biacore T200), mutein immobilized on CM5 chip, analyte in solution. On the procedure: (§2) The affinity and binding specificity of a lipocalin mutein was determined in a kinetic assay using surface plasmon resonance. The hepcidin-specific lipocalin mutein having the sequence of SEQ ID NO: 1 and the hNGAL lipocalin having the sequence of SEQ ID NO: 4 were immobilized to a level of 750-1100 resonance units (RU) on a CM5 sensor chip (GE Healthcare, BR-1005-30) using an amine coupling kit (GE Healthcare, BR-1000-50). Residual activated groups were saturated with ethanolamine. The reference channels were treated with EDC/NHS following ethanolamine (blank immobilization). Dilutions of Hepcidin-25 (Peptallova), Fe-enterobactin (Genaxxon Bioscience, S4035.0001), ß-defensin (Sigma Aldrich, D9565), VEGF₈₋₁₀₉ (Pieris, truncated VEGF) and HSA (Sigma Life sciences, A1653) in HBS-EP+ buffer (GE Healthcare, BR-1006-69) were applied to the prepared chip surfaces. The following parameters were used for the binding assay: contact time 60 s, dissociation time 600 s, flow rate 30 μL/min. All measurements were performed on a Biacore T200 instrument (GE Healthcare) at 25° C. […] Prior to the protein measurements three startup cycles were performed for conditioning purposes. Data were evaluated with Biacore T200 Evaluation software (V 1.0). Double referencing was used. The 1:1 Binding model was used to fit the raw data. No binding to the reference channel was detected for all of the targets. […] The bacterial siderophor Fe-enterobactin was selected for this analysis as it constitutes one of the natural ligands of the lipocalin that the lipocalin mutein was derived from.

Experiment [5] has as its target T5, HSA (Sigma Life sciences, A1653) (human, UniProt P02768 25-609).
T5 construct: Printed only as the abbreviation HSA
Described as above. On the procedure: as §2

In experiment [6] the target is T6, ß-defensin (Sigma Aldrich, D9565) (UniProt P60022 33-68).
T6 construct: also called mammalian antimicrobial 36 amino acid peptide ß-defensin
T6 peptide (looked up): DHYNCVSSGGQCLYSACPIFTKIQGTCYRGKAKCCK
Described as above. On the procedure: as §2

In experiment [7] the target is T2, Hepcidin-25. Put plainly: surface plasmon resonance (Biacore), Hepcidin-25 as analyte, tested side by side with cynomolgus hepcidin 25 in the same assay format; N=3.
Experiment [8] concerns the target T1, Hepcidin-25 containing a C-terminal …. Put plainly: solution competition ECL assay: 25 pM Hepcidin-25-C-bio pre-incubated with the conjugate, remaining free Hepcidin-25-C-bio captured on plate-coated antibody 12B9; STDV 10 pM, mean of n=5. On the procedure: as §1
Experiment [9] deals with T3, Cynomolgus hepcidin 25. Put plainly: surface plasmon resonance.
In experiment [10] the target is T1, Hepcidin-25 containing a C-terminal …. Put plainly: solution competition ECL assay: 25 pM Hepcidin-25-C-bio pre-incubated with the conjugate, remaining free Hepcidin-25-C-bio captured on plate-coated antibody 12B9; STDV 11 pM, mean of n=5. On the procedure: as §1
Experiment [11] has the same target. Put plainly: solution competition ECL assay: 25 pM Hepcidin-25-C-bio pre-incubated with the conjugate, remaining free Hepcidin-25-C-bio captured on plate-coated antibody 12B9; STDV 6 pM, mean of n=6. On the procedure: as §1
Experiment [12] has the same target. Put plainly: solution competition ECL assay: 25 pM Hepcidin-25-C-bio pre-incubated with the mutein, remaining free Hepcidin-25-C-bio captured on plate-coated antibody 12B9; STDV 23 pM, mean of n=6. On the procedure:
as §1

Experiment [13] concerns the target T2, Hepcidin-25. The experiment in a line: SPR (Biacore T200), hNGAL immobilized on CM5 chip, analyte in solution. On the procedure:
(§3) The reference channels were treated with EDC/NHS following ethanolamine (blank immobilization). Dilutions of Hepcidin-25 (Peptallova), Fe-enterobactin (Genaxxon Bioscience, S4035.0001), ß-defensin (Sigma Aldrich, D9565), VEGF₈₋₁₀₉ (Pieris, truncated VEGF) and HSA (Sigma Life sciences, A1653) in HBS-EP+ buffer (GE Healthcare, BR-1006-69) were applied to the prepared chip surfaces. The following parameters were used for the binding assay: contact time 60 s, dissociation time 600 s, flow rate 30 μL/min. All measurements were performed on a Biacore T200 instrument (GE Healthcare) at 25° C. […] Prior to the protein measurements three startup cycles were performed for conditioning purposes. Data were evaluated with Biacore T200 Evaluation software (V 1.0). Double referencing was used. The 1:1 Binding model was used to fit the raw data. No binding to the reference channel was detected for all of the targets. […] The bacterial siderophor Fe-enterobactin was selected for this analysis as it constitutes one of the natural ligands of the lipocalin that the lipocalin mutein was derived from. […] HSA and VEGF were used as example of non-related proteins. The hNGAL lipocalin, immobilized in an identical fashion on a CM5 chip compared to the lipocalin mutein was used as positive control for the Fe-enterobactin analyte. As described in the literature, the hNGAL lipocalin bound Fe-enterobactin with subnanomolar affinity, whereas none of the other analytes including hepcidin were bound.

The target of experiment [14] is T4, VEGF8-109 (Pieris, truncated VEGF). The description is as above. The method, then: as §3
The target of experiment [15] is T5, HSA (Sigma Life sciences, A1653). The description is as above. The method, then:
as §3

For experiment [16], the target named is T6, ß-defensin (Sigma Aldrich, D9565). The experiment is described as above. The method, then: as §3

Consider seven molecules from patent publication US20180311311A1 (Pieris, published 2018).

T5 sequence (P02768 25-609): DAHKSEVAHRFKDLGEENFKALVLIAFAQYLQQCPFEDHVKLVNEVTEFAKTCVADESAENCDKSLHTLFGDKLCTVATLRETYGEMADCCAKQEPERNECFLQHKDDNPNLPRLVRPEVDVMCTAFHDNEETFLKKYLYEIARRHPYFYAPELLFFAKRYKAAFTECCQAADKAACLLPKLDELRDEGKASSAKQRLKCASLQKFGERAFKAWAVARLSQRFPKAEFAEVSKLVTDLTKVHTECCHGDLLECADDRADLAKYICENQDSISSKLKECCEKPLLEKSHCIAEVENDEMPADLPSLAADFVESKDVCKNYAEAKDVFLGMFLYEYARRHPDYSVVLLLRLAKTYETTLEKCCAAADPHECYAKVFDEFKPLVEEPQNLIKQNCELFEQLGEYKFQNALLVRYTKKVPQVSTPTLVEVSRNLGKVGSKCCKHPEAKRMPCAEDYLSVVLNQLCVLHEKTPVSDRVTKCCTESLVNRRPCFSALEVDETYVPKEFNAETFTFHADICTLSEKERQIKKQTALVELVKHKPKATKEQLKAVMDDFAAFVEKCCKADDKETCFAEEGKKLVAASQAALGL

B1: hNGAL mutein having the sequence of SEQ ID NO: 1 linked to PEG12 (designed binder)
chain: QDSTSDLIPAPPLSKVPLQQNFQDNQFHGKWYVVGLAGNEVLREDKDPMKMWATIYELKEDKSYNVTIVMPLAEKCEYLFQTFVPGCQPGEFTLGGIKSGPGRTSGLVRVVSTNYNQHAMVFFKVVWQNREVFWVTLYGRTKELTSELKENFIRFSKSLGLPENHIVFPVPIDQCIDG
modifications: linear PEG12 (PEG-maleimide) on the free Cys at position 87
notes: also called PEG12 conjugate
For orientation: IC50 means the concentration that gives 50% inhibition. Lower therefore signals higher potency. For B1, the IC50 in [1] amounted to 0.048 nM.

B2: hepcidin-specific lipocalin mutein (hNGAL mutein) having the sequence of SEQ ID NO: 1 (designed binder)
chain: QDSTSDLIPAPPLSKVPLQQNFQDNQFHGKWYVVGLAGNEVLREDKDPMKMWATIYELKEDKSYNVTIVMPLAEKCEYLFQTFVPGCQPGEFTLGGIKSGPGRTSGLVRVVSTNYNQHAMVFFKVVWQNREVFWVTLYGRTKELTSELKENFIRFSKSLGLPENHIVFPVPIDQCIDG
notes: also called the lipocalin mutein; hNGAL mutein having a free cysteine residue at amino acid position 87
One may read the Kd as the free concentration of one partner at which half of the binding sites on the other are occupied at equilibrium, for simple one-to-one binding. A lower Kd goes with a tighter complex. A word on the koff: it is the first-order rate constant of dissociation. Higher therefore signals fast dissociation. For orientation: kon means a measure of how fast the partners come together. For B2, the Kd with Hepcidin-25 [2] was 0.07 nM; with Cynomolgus hepcidin 25 [3], 0.07 nM; with Hepcidin-25 [7] it was 0.1 nM. In addition, the koff in the experiment with Hepcidin-25 [2] was 0.0002 s⁻¹. In the experiment with Hepcidin-25 [2], the on-rate (kon) was 3.8e+06 M⁻¹ s⁻¹. Besides, the binding result in [4], in experiment [5] and in experiment [6] was “no binding” throughout.

B3: hNGAL mutein having the sequence of SEQ ID NO: 1 linked to PEG40 (designed binder)
chain: QDSTSDLIPAPPLSKVPLQQNFQDNQFHGKWYVVGLAGNEVLREDKDPMKMWATIYELKEDKSYNVTIVMPLAEKCEYLFQTFVPGCQPGEFTLGGIKSGPGRTSGLVRVVSTNYNQHAMVFFKVVWQNREVFWVTLYGRTKELTSELKENFIRFSKSLGLPENHIVFPVPIDQCIDG
modifications: branched PEG40 (PEG-maleimide) on the free Cys at position 87
notes: also called PEG40 conjugate
As for B3, the IC50 in [8] worked out at 0.054 nM. Also, in the experiment with Cynomolgus hepcidin 25 [9], the affinity, expressed as Kd, was 0.066 nM; the dissociation rate constant (koff) came to 0.000245 s⁻¹; the kon worked out at 3.74e+06 M⁻¹ s⁻¹.

B4: hNGAL mutein having the sequence of SEQ ID NO: 1 linked to PEG20 (designed binder)
chain: QDSTSDLIPAPPLSKVPLQQNFQDNQFHGKWYVVGLAGNEVLREDKDPMKMWATIYELKEDKSYNVTIVMPLAEKCEYLFQTFVPGCQPGEFTLGGIKSGPGRTSGLVRVVSTNYNQHAMVFFKVVWQNREVFWVTLYGRTKELTSELKENFIRFSKSLGLPENHIVFPVPIDQCIDG
modifications: linear PEG20 (PEG-maleimide) on the free Cys at position 87
notes: also called PEG20 conjugate
Consider B4, for which the half-inhibitory concentration (IC50) in experiment [10] is 0.047 nM.

B5: hNGAL mutein having the sequence of SEQ ID NO: 1 linked to PEG30 (designed binder)
chain: QDSTSDLIPAPPLSKVPLQQNFQDNQFHGKWYVVGLAGNEVLREDKDPMKMWATIYELKEDKSYNVTIVMPLAEKCEYLFQTFVPGCQPGEFTLGGIKSGPGRTSGLVRVVSTNYNQHAMVFFKVVWQNREVFWVTLYGRTKELTSELKENFIRFSKSLGLPENHIVFPVPIDQCIDG
modifications: linear PEG30 (PEG-maleimide) on the free Cys at position 87
notes: also called PEG30 conjugate; lipocalin-mutein-PEG30 conjugate
For the molecule B5, in the experiment with Cynomolgus hepcidin 25 [9], binding was put at a Kd of 0.066 nM. In addition, in experiment [11], the IC50 was found to be 0.058 nM.

B6: hNGAL mutein having the sequence of SEQ ID NO: 2 (designed binder)
chain: QDSTSDLIPAPPLSKVPLQQNFQDNQFHGKWYVVGLAGNEVLREDKDPMKMWATIYELKEDKSYNVTIVMPLAEKCEYLFQTFVPGSQPGEFTLGGIKSGPGRTSGLVRVVSTNYNQHAMVFFKVVWQNREVFWVTLYGRTKELTSELKENFIRFSKSLGLPENHIVFPVPIDQCIDG
notes: Non-PEGylated mutein with serine at position 87
The molecule B6 registered a concentration for half-maximal inhibition (IC50) in [12] of 0.056 nM. That is a picomolar value.

B7: hNGAL lipocalin having the sequence of SEQ ID NO: 4 (other)
chain: QDSTSDLIPAPPLSKVPLQQNFQDNQFHGKWYVVGLAGNAILREDKDPQKMYATIYELKEDKSYNVTSVLFRKKKCDYWIRTFVPGSQPGEFTLGNIKSYPGLTSYLVRVVSTNYNQHAMVFFKKVSQNREYFKITLYGRTKELTSELKENFIRFSKSLGLPENHIVFPVPIDQCIDG
notes: also called human neutrophil gelatinase-associated lipocalin; lipocalin 2
Regarding B7, the binding result (with Hepcidin-25 [13]; in experiment [14]; in experiment [15]; in experiment [16]) was “no binding” each time.
